Laboratory results published in paper doi:10.1101/2021.09.28.462122.

Biological target: NADP+-specific glutamate dehydrogenase from Aspergillus terreus (Aspergillus terreus)
Test: crystal structure

## NADP+-specific glutamate dehydrogenase from Aspergillus terreus (enzyme)
  stoichiometry N: 6
